According to patent US20100184658A1 (published 2010):

What was measured:
Assay in all cases: cell-based or functional assay
MERTK (cMER) = molecular target: T1, MERTK (cMER) (UniProt Q12866 578-872, limits assumed)
T1 sequence (looked up): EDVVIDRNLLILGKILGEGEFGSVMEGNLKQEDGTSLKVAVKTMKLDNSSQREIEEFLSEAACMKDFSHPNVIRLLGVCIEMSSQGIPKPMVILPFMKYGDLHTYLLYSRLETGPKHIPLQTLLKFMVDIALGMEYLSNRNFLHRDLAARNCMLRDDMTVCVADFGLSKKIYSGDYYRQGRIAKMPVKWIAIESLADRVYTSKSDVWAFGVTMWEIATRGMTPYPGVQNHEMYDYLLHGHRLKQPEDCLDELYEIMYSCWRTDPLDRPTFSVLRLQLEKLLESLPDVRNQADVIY

MAPKAPK3 = MAPKAPK3 (UniProt Q16644 1-382, limits assumed)
Chain of MAPKAPK3 (Q16644 whole entry): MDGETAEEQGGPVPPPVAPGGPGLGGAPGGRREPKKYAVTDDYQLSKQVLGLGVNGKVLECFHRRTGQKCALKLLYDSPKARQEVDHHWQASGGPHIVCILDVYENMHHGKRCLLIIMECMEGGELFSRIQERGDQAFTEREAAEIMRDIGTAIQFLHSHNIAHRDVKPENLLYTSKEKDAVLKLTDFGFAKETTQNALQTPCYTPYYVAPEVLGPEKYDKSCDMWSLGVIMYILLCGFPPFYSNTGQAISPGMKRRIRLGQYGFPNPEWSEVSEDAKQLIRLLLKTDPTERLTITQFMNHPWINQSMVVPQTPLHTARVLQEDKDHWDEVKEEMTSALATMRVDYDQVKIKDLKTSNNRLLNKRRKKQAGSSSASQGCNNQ

PRKCH (PKC eta) = PRKCH (PKC eta) (UniProt P24723 1-683, limits assumed)
Chain of PRKCH (PKC eta) (P24723 whole entry): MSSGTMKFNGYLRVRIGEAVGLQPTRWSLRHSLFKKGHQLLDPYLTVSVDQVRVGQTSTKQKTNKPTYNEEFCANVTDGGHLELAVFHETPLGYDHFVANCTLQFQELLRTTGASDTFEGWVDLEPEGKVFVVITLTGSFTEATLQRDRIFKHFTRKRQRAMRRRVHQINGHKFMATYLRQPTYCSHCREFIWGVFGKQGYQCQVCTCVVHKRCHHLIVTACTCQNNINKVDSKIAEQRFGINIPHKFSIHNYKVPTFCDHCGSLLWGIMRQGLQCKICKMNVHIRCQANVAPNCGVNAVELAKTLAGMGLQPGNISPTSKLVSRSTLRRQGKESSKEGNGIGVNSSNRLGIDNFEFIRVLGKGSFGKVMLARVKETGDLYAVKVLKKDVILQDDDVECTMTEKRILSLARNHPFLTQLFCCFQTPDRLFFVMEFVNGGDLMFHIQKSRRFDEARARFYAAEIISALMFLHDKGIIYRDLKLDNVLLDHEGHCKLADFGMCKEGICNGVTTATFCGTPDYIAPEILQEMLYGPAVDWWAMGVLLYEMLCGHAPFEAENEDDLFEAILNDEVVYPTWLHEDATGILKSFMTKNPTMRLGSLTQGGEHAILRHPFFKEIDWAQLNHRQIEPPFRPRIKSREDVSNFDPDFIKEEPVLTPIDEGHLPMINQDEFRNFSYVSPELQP

PASK = PASK (UniProt Q96RG2 879-1323, limits assumed)
Chain of PASK (Q96RG2 879-1323 limits assumed): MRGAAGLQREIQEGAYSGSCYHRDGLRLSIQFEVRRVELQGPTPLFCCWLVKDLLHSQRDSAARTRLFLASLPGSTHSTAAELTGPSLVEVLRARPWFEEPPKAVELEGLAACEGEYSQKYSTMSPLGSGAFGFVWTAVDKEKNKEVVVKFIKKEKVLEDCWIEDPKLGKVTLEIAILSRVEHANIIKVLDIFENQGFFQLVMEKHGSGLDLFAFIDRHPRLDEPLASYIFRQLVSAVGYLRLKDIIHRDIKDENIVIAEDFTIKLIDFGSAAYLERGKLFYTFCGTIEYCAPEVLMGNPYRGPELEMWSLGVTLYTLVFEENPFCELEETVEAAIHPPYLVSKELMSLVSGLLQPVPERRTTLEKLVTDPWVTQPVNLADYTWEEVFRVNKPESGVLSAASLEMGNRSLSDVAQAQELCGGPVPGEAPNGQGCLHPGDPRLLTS

MYLK2 (skMLCK) = MYLK2 (skMLCK) (UniProt Q9H1R3 1-596, limits assumed)
Chain of MYLK2 (skMLCK) (Q9H1R3 whole entry): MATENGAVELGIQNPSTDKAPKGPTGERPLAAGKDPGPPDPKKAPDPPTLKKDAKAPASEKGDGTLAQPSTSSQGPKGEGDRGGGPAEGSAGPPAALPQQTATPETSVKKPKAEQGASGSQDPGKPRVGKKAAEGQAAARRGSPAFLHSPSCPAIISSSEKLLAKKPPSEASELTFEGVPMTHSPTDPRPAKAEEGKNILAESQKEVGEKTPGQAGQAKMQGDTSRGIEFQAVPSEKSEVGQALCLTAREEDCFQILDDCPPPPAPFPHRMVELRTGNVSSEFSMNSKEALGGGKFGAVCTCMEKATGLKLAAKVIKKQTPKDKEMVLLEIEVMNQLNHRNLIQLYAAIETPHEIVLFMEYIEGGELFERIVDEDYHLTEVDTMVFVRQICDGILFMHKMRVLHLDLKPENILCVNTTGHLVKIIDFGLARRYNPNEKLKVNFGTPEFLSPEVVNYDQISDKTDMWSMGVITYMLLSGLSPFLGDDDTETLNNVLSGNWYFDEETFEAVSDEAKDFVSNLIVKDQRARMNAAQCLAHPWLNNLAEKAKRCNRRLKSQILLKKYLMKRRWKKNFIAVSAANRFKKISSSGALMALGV

[1] = molecular target: NEK6 NIMA (never in mitosis gene a)-related kinase 6 (UniProt Q9HC98 1-313, limits assumed)
Chain of NEK6 NIMA (never in mitosis gene a)-related kinase 6 (Q9HC98 whole entry): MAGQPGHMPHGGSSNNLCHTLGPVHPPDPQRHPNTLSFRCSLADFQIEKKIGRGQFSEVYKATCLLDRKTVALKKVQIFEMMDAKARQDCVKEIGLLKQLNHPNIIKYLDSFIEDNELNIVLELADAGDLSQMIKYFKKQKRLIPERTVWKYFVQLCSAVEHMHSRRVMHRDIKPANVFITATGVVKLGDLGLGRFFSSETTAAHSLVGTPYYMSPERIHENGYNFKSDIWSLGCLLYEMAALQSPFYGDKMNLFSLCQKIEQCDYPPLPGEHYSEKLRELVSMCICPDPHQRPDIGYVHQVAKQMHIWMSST

[2] = molecular target: T2, PRKD2 (PKD2) Protein kinase D2 (UniProt Q9BZL6 1-878, limits assumed)
T2 sequence (looked up): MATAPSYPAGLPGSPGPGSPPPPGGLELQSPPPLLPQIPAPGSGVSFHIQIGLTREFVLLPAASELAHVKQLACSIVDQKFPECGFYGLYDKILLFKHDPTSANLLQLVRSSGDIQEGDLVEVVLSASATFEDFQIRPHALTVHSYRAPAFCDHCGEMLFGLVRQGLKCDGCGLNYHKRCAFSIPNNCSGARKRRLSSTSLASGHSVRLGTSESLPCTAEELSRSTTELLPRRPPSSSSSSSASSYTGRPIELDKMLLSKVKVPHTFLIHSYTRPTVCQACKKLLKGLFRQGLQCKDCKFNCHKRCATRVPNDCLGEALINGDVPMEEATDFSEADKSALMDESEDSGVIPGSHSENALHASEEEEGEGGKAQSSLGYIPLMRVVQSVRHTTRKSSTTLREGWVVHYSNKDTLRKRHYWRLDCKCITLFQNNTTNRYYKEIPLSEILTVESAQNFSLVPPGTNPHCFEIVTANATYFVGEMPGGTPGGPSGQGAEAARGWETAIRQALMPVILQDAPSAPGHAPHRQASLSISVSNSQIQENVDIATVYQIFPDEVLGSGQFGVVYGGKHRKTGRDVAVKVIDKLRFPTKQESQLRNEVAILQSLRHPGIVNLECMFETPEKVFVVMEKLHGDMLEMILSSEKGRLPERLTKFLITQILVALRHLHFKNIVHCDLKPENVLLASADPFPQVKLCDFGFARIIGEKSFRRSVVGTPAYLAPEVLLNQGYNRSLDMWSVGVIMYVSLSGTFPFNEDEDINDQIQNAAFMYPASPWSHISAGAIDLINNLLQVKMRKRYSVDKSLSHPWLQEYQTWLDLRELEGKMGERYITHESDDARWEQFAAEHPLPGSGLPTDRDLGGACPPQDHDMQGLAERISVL

[3] = molecular target: T3, PHKG2 Phosphorylase kinase, gamma 2 (UniProt P15735 1-406, limits assumed)
T3 sequence (looked up): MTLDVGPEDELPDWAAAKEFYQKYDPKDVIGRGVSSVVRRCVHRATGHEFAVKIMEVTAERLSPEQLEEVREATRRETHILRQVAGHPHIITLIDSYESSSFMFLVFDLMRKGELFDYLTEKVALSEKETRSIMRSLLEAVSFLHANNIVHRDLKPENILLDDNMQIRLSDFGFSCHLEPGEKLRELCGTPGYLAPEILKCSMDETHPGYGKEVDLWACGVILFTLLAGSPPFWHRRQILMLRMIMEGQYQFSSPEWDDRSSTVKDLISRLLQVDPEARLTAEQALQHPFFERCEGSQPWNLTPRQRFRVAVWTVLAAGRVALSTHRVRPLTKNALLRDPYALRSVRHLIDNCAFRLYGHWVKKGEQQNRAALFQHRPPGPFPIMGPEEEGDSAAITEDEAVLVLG

RPS6KA5 (MSK1) = RPS6KA5 (MSK1) (UniProt O75582 1-802, limits assumed)
Chain of RPS6KA5 (MSK1) (O75582 whole entry): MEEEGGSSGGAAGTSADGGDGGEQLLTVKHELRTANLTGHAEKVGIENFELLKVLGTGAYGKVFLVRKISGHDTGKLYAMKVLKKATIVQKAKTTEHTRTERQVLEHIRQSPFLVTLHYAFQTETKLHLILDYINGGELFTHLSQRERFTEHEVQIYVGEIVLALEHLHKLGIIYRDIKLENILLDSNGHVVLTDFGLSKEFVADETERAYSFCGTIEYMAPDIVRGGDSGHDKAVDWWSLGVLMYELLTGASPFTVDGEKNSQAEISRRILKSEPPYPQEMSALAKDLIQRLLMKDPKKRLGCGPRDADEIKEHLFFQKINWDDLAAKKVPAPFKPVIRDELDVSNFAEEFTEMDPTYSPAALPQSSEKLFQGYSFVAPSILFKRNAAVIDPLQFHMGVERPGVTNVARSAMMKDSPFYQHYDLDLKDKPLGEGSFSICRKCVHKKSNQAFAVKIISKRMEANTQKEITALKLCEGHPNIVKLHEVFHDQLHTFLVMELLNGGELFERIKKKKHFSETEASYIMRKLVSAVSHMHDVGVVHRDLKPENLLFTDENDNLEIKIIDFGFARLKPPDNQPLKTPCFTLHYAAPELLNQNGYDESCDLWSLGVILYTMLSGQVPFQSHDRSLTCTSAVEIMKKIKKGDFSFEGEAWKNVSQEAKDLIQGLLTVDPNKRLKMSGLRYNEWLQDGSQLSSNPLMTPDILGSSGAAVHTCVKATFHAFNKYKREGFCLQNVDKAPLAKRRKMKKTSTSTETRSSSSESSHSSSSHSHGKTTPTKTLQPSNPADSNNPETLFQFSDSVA

IKBKB (IKK beta) IKK2 = molecular target: T4, IKBKB (IKK beta) IKK2 (human (printed as (h)), UniProt O14920 1-756, limits assumed)
T4 sequence (looked up): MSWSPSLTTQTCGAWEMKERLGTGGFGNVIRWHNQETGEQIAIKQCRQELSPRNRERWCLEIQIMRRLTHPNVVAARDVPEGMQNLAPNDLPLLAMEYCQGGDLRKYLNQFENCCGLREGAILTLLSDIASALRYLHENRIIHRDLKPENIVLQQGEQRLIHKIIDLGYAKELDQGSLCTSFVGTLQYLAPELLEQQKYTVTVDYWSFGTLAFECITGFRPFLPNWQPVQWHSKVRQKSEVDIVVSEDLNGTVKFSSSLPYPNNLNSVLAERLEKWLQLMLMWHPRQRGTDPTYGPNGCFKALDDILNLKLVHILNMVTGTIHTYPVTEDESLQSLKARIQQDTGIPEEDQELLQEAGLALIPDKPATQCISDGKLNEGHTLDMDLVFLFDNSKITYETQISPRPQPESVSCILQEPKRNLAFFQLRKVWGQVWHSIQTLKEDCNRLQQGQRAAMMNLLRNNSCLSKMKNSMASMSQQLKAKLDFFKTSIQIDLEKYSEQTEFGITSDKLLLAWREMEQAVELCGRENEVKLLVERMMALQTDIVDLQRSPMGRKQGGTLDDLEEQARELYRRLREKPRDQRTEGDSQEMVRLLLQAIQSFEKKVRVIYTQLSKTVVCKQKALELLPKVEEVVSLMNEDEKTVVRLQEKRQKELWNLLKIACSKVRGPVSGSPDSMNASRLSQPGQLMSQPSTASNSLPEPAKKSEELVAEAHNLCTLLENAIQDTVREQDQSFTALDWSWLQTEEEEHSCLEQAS

GRK6 = GRK6 (UniProt P43250 1-576, limits assumed)
Chain of GRK6 (P43250 whole entry): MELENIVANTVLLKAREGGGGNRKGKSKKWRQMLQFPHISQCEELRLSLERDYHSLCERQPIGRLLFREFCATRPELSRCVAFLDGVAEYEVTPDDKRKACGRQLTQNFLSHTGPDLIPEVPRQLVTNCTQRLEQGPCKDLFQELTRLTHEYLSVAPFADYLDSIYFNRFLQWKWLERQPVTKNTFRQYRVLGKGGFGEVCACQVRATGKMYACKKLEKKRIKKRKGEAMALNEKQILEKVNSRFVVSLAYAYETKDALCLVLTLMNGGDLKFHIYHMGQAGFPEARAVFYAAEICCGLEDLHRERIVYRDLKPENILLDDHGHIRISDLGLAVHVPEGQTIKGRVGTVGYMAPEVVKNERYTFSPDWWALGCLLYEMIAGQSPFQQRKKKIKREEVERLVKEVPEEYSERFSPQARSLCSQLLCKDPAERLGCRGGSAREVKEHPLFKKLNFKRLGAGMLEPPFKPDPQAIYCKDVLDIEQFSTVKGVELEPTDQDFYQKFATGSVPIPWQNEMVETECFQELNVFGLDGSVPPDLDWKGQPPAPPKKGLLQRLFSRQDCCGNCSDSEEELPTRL
Also: test concentration or dose not given here.

SGRPPMIVWFNRPFLIAVSHTHGQTILFMAKVINPVGA [D3 peptide]
% Inhibition mean (MERTK (cMER)): 79.5%
% Inhibition mean (MAPKAPK3): 64.1%
% Inhibition mean (PRKCH (PKC eta)): 46.5%
% Inhibition mean (PASK): 80.8%
% Inhibition mean (MYLK2 (skMLCK)): 64.6%
% Inhibition mean [1]: 97.4%
% Inhibition mean [2]: 92.5%
% Inhibition mean [3]: 87%
% Inhibition mean (RPS6KA5 (MSK1)): 85%
% Inhibition mean (IKBKB (IKK beta) IKK2): 41%
% Inhibition mean (GRK6): 57.1%
